Values quoted from earlier work, collected in US6153653A, “Choline compositions and uses thereof” (Protarga, Inc., priority 1997, dated 2000).

Conditions: relative to native tPA

B1: C84S tPA: tPA variants in which a cysteine at position 84 of the growth factor domain of native tPA is replaced by serine (protein, UniProt P00750 36-562, looked up, variant C84S)
Tissue-type plasminogen …: SYQVICRDEKTQMIYQQHQSWLRPVLRSNRVEYCWCNSGRAQCHSVPVKSCSEPRCFNGGTCQQALYFSDFVCQCPEGFAGKCSEIDTRATCYEDQGISYRGTWSTAESGAECTNWNSSALAQKPYSGRRPDAIRLGLGNHNYCRNPDRDSKPWCYVFKAGKYSSEFCSTPACSEGNSDCYFGNGSAYRGTHSLTESGASCLPWNSMILIGKVYTAQNPSAQALGLGKHNYCRNPDGDAKPWCHVLKNRRLTWEYCDVPSCSTCGLRQYSQPQFRIKGGLFADIASHPWQAAIFAKHRRSPGERFLCGGILISSCWILSAAHCFQERFPPHHLTVILGRTYRVVPGEEEQKFEVEKYIVHKEFDDDTYDNDIALLQLKSDSSRCAQESSVVRTVCLPPADLQLPDWTECELSGYGKHEALSPFYSERLKEAHVRLYPSSRCTSQHLLNRTVTDNMLCAGDTRSGGPQANLHDACQGDSGGPLVCLNDGRMTLVGIISWGLGCGQKDVPGVYTKVTNYLDWIRDNMRP
For B1, the “in vivo half life (in words)” value (in vivo) is listed as “longer in vivo half life than native tPA” and the “functional activity (in words)” value is listed as “retains the functional activity of native tPA”.
